# Reference: article PMC8380825 (Journal of molecular biology, 2021)
# Where “and” joins values, the source holds several entries; their conditions need not be identical. Equal entries are not always repeated. Where two headings read alike, the source gives them in different places. Where no end group is shown, it is not given here. TAMRA = 5(6)-carboxytetramethylrhodamine
# T1: NPR-1 (Caenorhabditis elegans, UniProt Q18534)
# T1 sequence (Q18534 1-457): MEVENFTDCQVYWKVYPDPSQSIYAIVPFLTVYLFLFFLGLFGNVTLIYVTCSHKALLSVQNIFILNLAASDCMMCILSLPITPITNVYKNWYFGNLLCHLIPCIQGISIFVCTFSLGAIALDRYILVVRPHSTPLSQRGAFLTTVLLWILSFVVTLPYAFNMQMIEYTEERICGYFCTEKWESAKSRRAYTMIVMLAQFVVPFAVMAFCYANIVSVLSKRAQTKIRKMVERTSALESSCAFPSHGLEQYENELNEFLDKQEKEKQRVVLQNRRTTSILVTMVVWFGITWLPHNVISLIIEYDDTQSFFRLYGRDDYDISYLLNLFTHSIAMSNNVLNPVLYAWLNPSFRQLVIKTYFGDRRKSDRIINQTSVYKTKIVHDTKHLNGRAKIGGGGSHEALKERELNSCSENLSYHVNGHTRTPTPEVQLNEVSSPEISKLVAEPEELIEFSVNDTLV
# T2: Nluc-NPR-1-eYFP (C. elegans neuropeptide receptor NPR-1, wild type) (C. elegans) (UniProt Q18534)
# T2 sequence: T1 sequence (Q18534 1-457)
# T3: NPR-11 (Caenorhabditis elegans, UniProt Q18179)
# T3 sequence (Q18179 1-402): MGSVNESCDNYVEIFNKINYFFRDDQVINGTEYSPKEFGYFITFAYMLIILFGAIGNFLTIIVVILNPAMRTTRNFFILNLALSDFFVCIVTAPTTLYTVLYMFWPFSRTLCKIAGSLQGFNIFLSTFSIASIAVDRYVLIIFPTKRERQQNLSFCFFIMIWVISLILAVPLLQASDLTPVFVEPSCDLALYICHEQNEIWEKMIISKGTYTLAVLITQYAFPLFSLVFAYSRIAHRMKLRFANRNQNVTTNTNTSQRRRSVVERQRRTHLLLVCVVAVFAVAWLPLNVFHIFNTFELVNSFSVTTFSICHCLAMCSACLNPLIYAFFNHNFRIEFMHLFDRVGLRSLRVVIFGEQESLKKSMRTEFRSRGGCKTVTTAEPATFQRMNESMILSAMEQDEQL
# T4: Nluc-NPR-11-eYFP (C. elegans neuropeptide receptor NPR-11, wild type) (C. elegans, UniProt Q18179 1-402)
# T4 sequence (looked up): T3 sequence (Q18179 1-402)
# T5: Nluc-NPR-1-eYFP (C. elegans neuropeptide receptor NPR-1, wild type) (C. elegans, UniProt Q18534 1-457)
# T5 sequence (looked up): T1 sequence (Q18534 1-457)
# B1: [P6A]-FLP-21 (peptide)
# peptide: GLGPRALRF-NH2
# B2: N-terminally acetylated FLP-21 (peptide)
# peptide: Ac-GLGPRPLRF-NH2
# B3: FLP-34–1 (ADISTFASAINNAGRLRYamide) (peptide)
# peptide: ADISTFASAINNAGRLRY-NH2
# B4: [TAMRA]-FLP-21 (peptide)
# peptide: {TAMRA}-GLGPRPLRF-NH2
# B5: [L7A]-FLP-21 (peptide)
# peptide: GLGPRPARF-NH2
# B6: [TAMRA]-FLP-34–1 (peptide)
# peptide: {TAMRA}-ADISTFASAINNAGRLRY-NH2
# B7: FLP-21 (GLGPRPLRFamide) (peptide)
# peptide: GLGPRPLRF-NH2
# B8: [F9Y]-FLP-21 (peptide)
# peptide: GLGPRPLRY-NH2
# B9: FLP-34–1 (…amide) (peptide)
# peptide: ADISTFASAINNAGRLRY-NH2
# B10: FLP-21 (…amide) (peptide)
# peptide: GLGPRPLRF-NH2
# B11: [R5A]-FLP-21 (peptide)
# peptide: GLGPAPLRF-NH2
# Key:
# [1] = target: T1, NPR-1; experiment: cAMP reporter gene assay; type: cell-based, C. elegans; settings: wild type NPR-1
# [2] = target: T2, Nluc-NPR-1-eYFP (C. elegans neuropeptide receptor NPR-1, wild type) (C. elegans)
# [3] = target: T3, NPR-11; experiment: cAMP reporter gene assay; type: cell-based, C. elegans; settings: wild type NPR-11
# [4] = target: T1, NPR-1; experiment: NanoBRET displacement binding assay, Nluc-NPR-1; set-up: species or system C. elegans; settings: HEK293 membranes, 100 nM [TAMRA]-FLP-21 tracer, 90 min, room temperature
# [5] = target: T2, Nluc-NPR-1-eYFP (C. elegans neuropeptide receptor NPR-1, wild type) (C. elegans); remark: listed apart in the source
# [6] = target: NPR-1 mutants (Caenorhabditis elegans, UniProt Q18534, E180D); experiment: cAMP reporter gene assay; type: cell-based, C. elegans; settings: NPR-1 E^5.27D
# Chain of NPR-1 mutants (Caenorhabditis elegans, UniProt Q18534, E180D) (Q18534 whole entry E180D): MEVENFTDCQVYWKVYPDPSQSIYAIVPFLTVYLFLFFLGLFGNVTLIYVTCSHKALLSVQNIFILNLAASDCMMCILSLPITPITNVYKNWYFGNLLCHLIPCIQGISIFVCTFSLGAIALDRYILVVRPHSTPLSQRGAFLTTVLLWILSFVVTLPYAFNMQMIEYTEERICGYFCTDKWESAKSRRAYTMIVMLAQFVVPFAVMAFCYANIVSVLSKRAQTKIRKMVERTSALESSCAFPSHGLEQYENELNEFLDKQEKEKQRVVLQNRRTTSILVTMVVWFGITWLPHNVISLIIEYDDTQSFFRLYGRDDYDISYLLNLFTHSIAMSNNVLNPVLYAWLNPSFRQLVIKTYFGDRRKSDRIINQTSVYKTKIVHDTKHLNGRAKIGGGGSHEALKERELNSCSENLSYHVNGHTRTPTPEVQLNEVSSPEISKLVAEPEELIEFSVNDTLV
# [7] = target: NPR-1 mutants (Caenorhabditis elegans, UniProt Q18534, E301A); experiment: cAMP reporter gene assay; type: cell-based, C. elegans; settings: NPR-1 E^6.59A
# Chain of NPR-1 mutants (Caenorhabditis elegans, UniProt Q18534, E301A) (Q18534 whole entry E301A): as the sequence (Q18534 whole entry E180D) above, with D180E, E301A counted along it
# [8] = target: NPR-11 mutants (Caenorhabditis elegans, UniProt Q18179, E196D); experiment: cAMP reporter gene assay; type: cell-based, C. elegans; settings: NPR-11 E^5.23D
# Chain of NPR-11 mutants (Q18179 whole entry E196D): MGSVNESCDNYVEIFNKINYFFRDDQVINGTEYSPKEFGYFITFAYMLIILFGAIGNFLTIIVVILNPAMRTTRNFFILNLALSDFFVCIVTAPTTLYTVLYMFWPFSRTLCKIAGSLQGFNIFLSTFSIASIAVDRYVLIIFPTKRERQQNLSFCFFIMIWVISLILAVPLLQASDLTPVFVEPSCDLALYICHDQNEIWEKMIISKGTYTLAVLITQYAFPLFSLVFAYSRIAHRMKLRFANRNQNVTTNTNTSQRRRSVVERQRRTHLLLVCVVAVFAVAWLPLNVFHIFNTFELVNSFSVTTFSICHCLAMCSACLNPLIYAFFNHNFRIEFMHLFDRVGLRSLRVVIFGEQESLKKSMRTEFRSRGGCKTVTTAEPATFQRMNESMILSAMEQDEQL
# [9] = target: T2, Nluc-NPR-1-eYFP (C. elegans neuropeptide receptor NPR-1, wild type) (C. elegans); remark: listed apart in the source
# [10] = target: T2, Nluc-NPR-1-eYFP (C. elegans neuropeptide receptor NPR-1, wild type) (C. elegans); remark: listed apart in the source
# [11] = target: T4, Nluc-NPR-11-eYFP (C. elegans …); experiment: FRET or BRET
# [12] = target: T5, Nluc-NPR-1-eYFP (C. elegans …); experiment: cell-based or functional assay
# [13] = target: Nluc-NPR-11-eYFP Q3.32A (C. elegans) (UniProt Q18179); experiment: FRET or BRET
# [14] = target: T4, Nluc-NPR-11-eYFP (C. elegans …); experiment: cell-based or functional assay
# [15] = target: Nluc-NPR-11-eYFP Q3.32H (C. elegans) (UniProt Q18179); experiment: FRET or BRET
# [16] = target: T5, Nluc-NPR-1-eYFP (C. elegans …); experiment: FRET or BRET
# [17] = target: NPR-11-eYFP E5.23D (C. elegans), Q18179
# [18] = target: Nluc-NPR-11-eYFP Q3.32A (C. elegans) (UniProt Q18179)
# [19] = target: NPR-1-eYFP E6.59A (C. elegans), Q18534
# [20] = target: NPR-1-eYFP E6.59D (C. elegans), Q18534
# [21] = target: NPR-1-eYFP E5.27D (C. elegans), Q18534
molecule,measurement,setting,value
Ac-FLP-21: FLP-21 acetylated at the free N terminus (Ac-GLGPRPLRF-NH2),EC50 shift (loss of potency) relative to wild type FLP-21,[1],3 fold
[F9Cha]-FLP-21 (peptide),"cAMP reporter gene assay (Gi/o), EC50 shift against wild type FLP-21",[2],> 600 fold
"[F^9Cha]-FLP-21: FLP-21 variant, F^9 replaced with cyclohexylalanine",EC50 shift (loss of potency) relative to wild type FLP-21,[1],> 600 fold
same,EC50 shift relative to wild type FLP-21,[3],20 fold
"[F^9Y]-FLP-21: FLP-21 variant, F^9 to tyrosine (GLGPRPLRY-NH2)",EC50 shift (loss of potency) relative to wild type FLP-21,[1],14 fold
same,receptor activation in words,[3],wild type-like activity
same,Ki shift relative to wild type FLP-21,[4],11 fold
"[L^16A]-FLP-34–1: FLP-34–1 variant, L^16 to alanine (ADISTFASAINNAGRARY-NH2)",EC50 shift relative to wild type FLP-34–1,[3],> 140 fold
"[L^16Q]-FLP-34–1: FLP-34–1 variant, L^16 to glutamine (ADISTFASAINNAGRQRY-NH2)",receptor activation in words,[3],impaired activation
"[P^6A]-FLP-21: FLP-21 variant, P^6 to alanine (GLGPRALRF-NH2)",EC50 shift (loss of potency) relative to wild type FLP-21,[1],34 fold
same,EC50 shift relative to wild type FLP-21,[3],18 fold
[R5hArg]-FLP-21 (peptide),"cAMP reporter gene assay (Gi/o), EC50 of receptor activation",[5],5.2 nM
"[R^5A]-FLP-21: FLP-21 variant, R^5 to alanine (GLGPAPLRF-NH2)",EC50 shift (loss of potency) relative to wild type FLP-21,[1],368 fold
"[R^8hArg]-FLP-21: FLP-21 variant, R^8 replaced with homoarginine",EC50 shift (loss of potency) relative to wild type FLP-21,[1],> 900 fold and 976 fold
same,EC50 shift relative to wild type FLP-21 at the same receptor mutant,[6],34 fold
same,EC50 shift relative to wild type FLP-21 at the same receptor mutant,[7],91 fold
same,EC50 shift relative to wild type FLP-21,[3],135 fold
"[R^15A]-FLP-34–1: FLP-34–1 variant, R^15 to alanine (ADISTFASAINNAGALRY-NH2)",EC50 shift relative to wild type FLP-34–1,[3],> 900 fold
"[R^17hArg]-FLP-34–1: FLP-34–1 variant, R^17 to homoarginine",EC50 shift relative to wild type FLP-34–1,[3],> 70 fold and 77 fold
same,EC50 shift compared to wild type FLP-34–1 at the same receptor mutant,[8],0.9 fold
B1,"cAMP reporter gene assay (Gi/o), decrease of activity against wild type FLP-21",[9],34 fold
B2,"cAMP reporter gene assay (Gi/o), reduction of potency against wild type FLP-21",[10],3 fold
B3,Ki,[11],107 nM
B4,"cAMP reporter gene assay (Gi/o), reduction of potency against wild type FLP-21",[12],12 fold
same,Kd,[13],190 nM
B5,"cAMP reporter gene assay (Gi/o), decrease of activity against wild type FLP-21",[12],497 fold
same,"cAMP reporter gene assay (Gi/o), EC50 shift against wild type FLP-21",[14],10 fold
same,fold reduction of Ki against FLP-21,[13],100 fold
same,fold reduction of Ki against FLP-21,[11],< 10 fold
B6,fold reduction of binding affinity against wild type NPR-11,[15],4 fold
B7,Ki,[11],107 nM
B8,"cAMP reporter gene assay (Gi/o), EC50 shift against wild type FLP-21",[12],14 fold
same,fold shift of Ki against wild type FLP-21,[16],11 fold
B9,"cAMP reporter gene assay (Gi/o), EC50 against the wild type receptor",[17],92 fold
B10,"cAMP reporter gene assay (Gi/o), EC50 of receptor activation",[18],0.1 nM
same,"cAMP reporter gene assay (Gi/o), EC50 of receptor activation",[19],20 nM
same,"cAMP reporter gene assay (Gi/o), EC50 of receptor activation",[20],0.13 nM
same,"cAMP reporter gene assay (Gi/o), EC50 of receptor activation",[21],495 nM
B11,"cAMP reporter gene assay (Gi/o), EC50 shift against wild type FLP-21",[9],368 fold
